From patent US20210206856A1 (PANDION OPERATIONS, published 2021) come the findings set out here.

In assay [1] the target is T1, human MAdCAM expressed on cells (human, UniProt Q13477 19-382).
T1 construct: whole, on cells; also called MADCAM1
T1 sequence (looked up): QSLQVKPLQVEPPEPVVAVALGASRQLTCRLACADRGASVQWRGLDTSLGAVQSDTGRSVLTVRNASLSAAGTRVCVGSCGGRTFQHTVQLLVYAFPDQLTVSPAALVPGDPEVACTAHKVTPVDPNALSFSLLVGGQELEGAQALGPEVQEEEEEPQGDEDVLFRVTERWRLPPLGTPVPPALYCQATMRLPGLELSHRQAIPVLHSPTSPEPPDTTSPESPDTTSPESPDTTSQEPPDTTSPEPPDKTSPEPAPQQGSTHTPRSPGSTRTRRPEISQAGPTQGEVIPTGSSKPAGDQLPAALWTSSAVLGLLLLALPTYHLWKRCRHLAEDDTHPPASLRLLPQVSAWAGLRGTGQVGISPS
The experiment in a line: cell binding.

Assay [2] addresses T2, mouse MAdCAM expressed on cells (mouse, UniProt Q61826 22-405).
T2 construct: whole, on cells
T2 sequence (looked up): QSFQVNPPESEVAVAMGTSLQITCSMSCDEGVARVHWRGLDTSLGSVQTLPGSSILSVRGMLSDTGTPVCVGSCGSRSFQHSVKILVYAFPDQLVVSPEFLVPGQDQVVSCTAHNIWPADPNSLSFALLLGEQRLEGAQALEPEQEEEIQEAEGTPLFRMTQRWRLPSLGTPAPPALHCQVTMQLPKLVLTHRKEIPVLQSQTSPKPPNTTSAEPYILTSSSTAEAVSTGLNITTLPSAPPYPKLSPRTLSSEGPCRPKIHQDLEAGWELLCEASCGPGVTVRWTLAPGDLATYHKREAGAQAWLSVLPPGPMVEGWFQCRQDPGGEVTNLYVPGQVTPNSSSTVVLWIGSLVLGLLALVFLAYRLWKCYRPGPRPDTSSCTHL
The experiment in a line: cell binding.

B1: MAdCAM Antibody Table 2 Clone 7 (antibody, human IgG1, V domains shown)
VH: EVQLLESGGGLVQPGGSLRLSCAASGFTFSDYQMSWVRQAPGKGLEWVAIISHADGGFKDYADSVKGRFTISRDNSKNTLYLQMNSLRAEDTAVYYCAKPYSSGWSAVYYFDYWGQGTLVTVSS
VL: DIQMTQSPSSLSASVGDRVTITCRASRGITNDLGWYQQKPGKAPKLLIYAASTLQSGVPSRFSGSGSGTDFTLTISSLQPEDFATYYCQQAYSFPWTFGQGTKVEIK
For B1, the binding result in assay [1] and in assay [2] was “binds” each time.

B2: MAdCAM Antibody Table 2 Clone 13 (antibody, human IgG1, V domains shown)
VH: QVQLVQSGAEVKKPGASVKVSCKASGYTFTTYYMHWVRQAPGQGLEWMGGFDPEDGETIYAQKFQGRVTMTRDTSTSTVYMELSSLRSEDTAVYYCARHAVAGAVGAGYYYYGMDVWGQGTMVTVSS
VL: DIQMTQSPSSLSASVGDRVTITCRASESISNWLAWYQQKPGKAPKLLIYAASTLQSGVPSRFSGSGSGTDFTLTISSLQPEDFATYYCQQSYSVPFTFGPGTKVDIK
B2: the binding result was “binds” in assay [1] and “no binding” in assay [2].

B3: MAdCAM Antibody Table 2 Clone 27 (antibody, V domains shown)
VH: EVQLLESGGGLVQPGGSLRLSCAASGFTFSSYQMSWVRQAPGKGLEWVSYISSSSTYTNYADSVKGRFTISRDNSKNTLYLQMNSLRAEDTAVYYCARANSSSWYDWYFDLWGQGTLVTVSS
VL: not shown
With B3, in assay [2], the binding result is “no binding”.

B4: MAdCAM Antibody Table 2 Clone 10 (antibody, human IgG1, V domains shown)
VH: EVQLLESGGGLVQPGGSLRLSCAASGFMFGDYAMHWVRQAPGKGLEWVSAISGSGGSTYYADSVKGRFTISRDNSKNTLYLQMNSLRAEDTAVYYCAKDLVVAGIWYFDLWGRGTLVTVSS
VL: DIQMTQSPSSLSASVGDRVTITCRASQGISNNLNWYQQKPGKAPKLLIYDASSLESGVPSRFSGSGSGTDFTLTISSLQPEDFATYYCQQTHSFPSTFGQGTKLEIK
On to B4, for which the binding result in assay [1] and in assay [2] was “binds” throughout.

B5: MAdCAM Antibody Table 2 Clone 18 (antibody, human IgG1, V domains shown)
VH: QVQLVQSGAEVKKPGSSVKVSCKASGYTFTNYYMHWVRQAPGQGLEWMGGIIPIVDRVKYAQKFQGRVTITADESTSTAYMELSSLRSEDTAVYYCAKGRYTVNYYYGMDVWGQGTTVTVSS
VL: DIQMTQSPSSLSASVGDRVTITCQANQDISNYLNWYQQKPGKAPKLLIYRASKLEAGVPSRFSGSGSGTDFTLTISSLQPEDFATYYCQQSSEIPYSFGQGTKLEIK
For the molecule B5, the binding result in assay [1] was “binds”; in assay [2], “no binding”.

B6: MAdCAM Antibody Table 2 Clone 21 (antibody, human IgG1, V domains shown)
VH: EVQLVESGGGLVKPGGSLRLSCAASGFTFSSYWMSWVRQAPGKGLEWVSYISGDSGYTNYAAPVKGRFTISRDDSKNTLYLQMNSLKTEDTAVYYCARANSSGWYDWYFDLWGRGTLVTVSS
VL: not shown
B6: the binding result in assay [1] is reported as “binds”; in assay [2], “no binding”.

B7: MAdCAM Antibody Table 2 Clone 15 (antibody, human IgG1, V domains shown)
VH: QVQLVQSGAEVKKPGASVKVSCKASGYTFTGYYMHWVRQAPGQGLEWMGWIGPNSGDTNYAQKFQGRVTMTRDTSTSTVYMELSSLRSEDTAVYYCARDLDHNWYFDLWGRGTLVTVSS
VL: DIVMTQSPLSLPVTPGEPASISCRSSQSLLHSNGYNYLDWYLQKPGQSPQLLIYSSSNRAPGVPDRFSGSGSGTDFTLKISRVEAEDVGVYYCMQALHIPLTFGGGTKVEIK
For B7, the binding result in assay [1] is “binds”; in assay [2], “no binding”.

B8: MAdCAM Antibody Table 2 Clone 9 (antibody, human IgG1, V domains shown)
VH: QVQLVQSGAEVKKPGASVKVSCKASGYTFTSYYMHWVRQAPGQGLEWMGIINHSGGSTSYAQKFQGRVTMTRDTSTSTVYMELSSLRSEDTAVYYCARPYSGWYFAFDIWGQGTLVTVSS
VL: not shown
Turning to B8, the binding result in assay [2] is listed as “no binding”.

B9: MAdCAM Antibody Table 2 Clone 19 (antibody, human IgG1, V domains shown)
VH: EVQLLESGGGLVQPGGSLRLSCAASGFTFEDYAMHWVRQAPGKGLEWVSYLNSDGGSTSYADSVKGRFTISRDNSKNTLYLQMNSLRAEDTAVYYCAKDYCTNGVCAFDYWGQGTLVTVSS
VL: DIQMTQSPSSLSASVGDRVTITCRASQSISTYLNWYQQKPGKAPKLLIYDASNLETGVPSRFSGSGSGTDFTLTISSLQPEDFATYYCQQSYTIPITFGQGTRLEIK
Consider B9, for which the binding result in assay [1] is listed as “binds”; in assay [2], “no binding”.

B10: MAdCAM Antibody Table 2 Clone 35 (antibody, human IgG1, V domains shown)
VH: QVQLVQSGAEVKKPGASVKVSCKASGYTFTGYYIHWVRQAPGQGLEWMGWMNPNSGNTGYAQKFQGRVTMTRDTSTSTVYMELSSLRSEDTAVYYCARDPGFLGYSSGGSSYDGWFDPWGQGTLVTVSS
VL: DIQMTQSPSSLSASVGDRVTITCRASQSISSYLHWYQQKPGKAPKLLIYAASSLQSGVPSRFSGSGSGTDFTLTISSLQPEDFATYYCQQSYTAPYTFGQGTKLEIK
In the case of B10, the binding result in assay [2] was “no binding”.

B11: MAdCAM Antibody Table 2 Clone 1 (antibody, human IgG1, V domains shown)
VH: EVQLLESGGGLVQPGGSLRLSCAASGFTFSSYGMHWVRQAPGKGLEWVAVISDDGSDKYYADSVKGRFTISRDNSKNTLYLQMNSLRAEDTAVYYCTTSKYYYYYGMDVWGQGTTVTVSS
VL: DIQMTQSPSSLSASVGDRVTITCQASQDISKSLNWYQQKPGKAPKLLIYAASSLQSGVPSRFSGSGSGTDFTLTISSLQPEDFATYYCQQGYSTPLTFGGGTKVEIK
As for B11, the binding result in assay [1] and in assay [2] was “binds” throughout.

B12: MAdCAM Antibody Table 2 Clone 25 (antibody, human IgG1, V domains shown)
VH: EVQLLESGGGLVQPGGSLRLSCAASGFTFSNAWMSWVRQAPGKGLEWVSTIVGNGGATYYADSVKGRFTISRDNSKNTLYLQMNSLRAEDTAVYYCARDNPLRWQGMDVWGQGTLVTVSS
VL: DIQMTQSPSSLSASVGDRVTITCRASQDISNYLNWYQQKPGKAPKLLIYAASSLQSGVPSRFSGSGSGTDFTLTISSLQPEDFATYYCQQSYSIPPTFGPGTKVDIK
As to B12, the binding result was “binds” in assay [1] and “no binding” in assay [2].

B13: MAdCAM Antibody Table 2 Clone 32 (antibody, human IgG1, V domains shown)
VH: QVQLVQSGAEVKKPGASVKVSCKASGYTLTTWYMYWVRQAPGQGLEWMGWINPNRGATNYAQKFQGRVTMTRDTSTSTVYMELSSLRSEDTAVYYCAKGDLWGAMDVWGQGTLVTVSS
VL: DIQMTQSPSSLSASVGDRVTITCRASDNIGSWLAWYQQKPGKAPKLLIYAASSLQSGVPSRFSGSGSGTDFTLTISSLQPEDFATYYCQQGYSTPPTFGQGTKVEIK
Turning to B13, the binding result in assay [2] is reported as “no binding”.

B14: MAdCAM Antibody Table 2 Clone 16 (antibody, human IgG1, V domains shown)
VH: EVQLLESGGGLVQPGGSLRLSCAASGFTFDDYAMHWVRQAPGKGLEWVSYIDASGTTIYYADSVKGRFTISRDNSKNTLYLQMNSLRAEDTAVYYCAKDQAAAGYWYFDLWGRGTLVTVSS
VL: DIQMTQSPSSLSASVGDRVTITCQASQDISNYLNWYQQKPGKAPKLLIYKASTLESGVPSRFSGSGSGTDFTLTISSLQPEDFATYYCQQSYSTPITFGQGTRLEIK
B14: the binding result is reported as “binds” in assay [1] and “no binding” in assay [2].

B15: MAdCAM Antibody Table 2 Clone 8 (antibody, human IgG1, V domains shown)
VH: QVQLVQSGAEVKKPGASVKVSCKASGYTFTGYHIHWVRQAPGQGLEWMGIINPSGGSTIYAQKFQGRVTMTRDTSTSTVYMELSSLRSEDTAVYYCAKDWSSWYLGPFDYWGQGTLVTVSS
VL: DIQMTQSPSSLSASVGDRVTITCRASQNISSSLNWYQQKPGKAPKLLIYAASSLQSGVPSRFSGSGSGTDFTLTISSLQPEDFATYYCQQSYTTPYTFGQGTKVEIK
As to B15, the binding result in assay [1] and in assay [2] was “binds” throughout.

B16: MAdCAM Antibody Table 2 Clone 11 (antibody, human IgG1, V domains shown)
VH: EVQLLESGGGLVQPGGSLRLSCAASGFTFSDYYMNWVRQAPGKGLEWVSVIGESGGSTYYADSVKGRFTISRDNSKNTLYLQMNSLRAEDTAVYYCAADPVSRWPKHGGGDYWGQGTLVTVSS
VL: DIQMTQSPSSLSASVGDRVTITCRASQGISSSLAWYQQKPGKAPKLLIYAASTLQSGVPSRFSGSGSGTDFTLTISSLQPEDFATYYCQQSYSTPWTFGQGTKVEIK
Turning to B16, the binding result in assay [1] and in assay [2] was “binds” each time.

B17: MAdCAM Antibody Table 2 Clone 12 (antibody, human IgG1, V domains shown)
VH: QVQLVQSGAEVKKPGASVKVSCKASGYTLTTWYMYWVRQAPGQGLEWMGWINPNRGATNYAQKFQGRVTMTRDTSTSTVYMELSSLRSEDTAVYYCAKGDLWGAMDVWGQGTLVTVSS
VL: DIQMTQSPSSLSASVGDRVTITCRASDNIGSWLAWYQQKPGKAPKLLIYAASSLQSGVPSRFSGSGSGTDFTLTISSLQPEDFATYYCQQGYSTPPTFGQGTKVEIK
As for B17, the figures for the binding result in assay [1] and in assay [2] were “binds” and “no binding”, respectively.

B18: MAdCAM Antibody Table 2 Clone 33 (antibody, human IgG1, V domains shown)
VH: QVQLVQSGAEVKKPGASVKVSCKASGYTLTTWYMYWVRQAPGQGLEWMGWINPNRGATNYAQKFQGRVTMTRDTSTSTVYMELSSLRSEDTAVYYCAKGDLWGAMDVWGQGTTVTVSS
VL: DIQMTQSPSSLSASVGDRVTITCRASDNIGSWLAWYQQKPGKAPKLLIYAASSLQSGVPSRFSGSGSGTDFTLTISSLQPEDFATYYCQQGYSTPPTFGQGTKVEIK
Regarding B18, the binding result in assay [1] is “binds”; in assay [2], “no binding”.
